{"source": "the supplement of paper PMC10266784", "parents": {"B1": {"name": "library; numbered along this chain (parent)", "chain": "MAAAAAAAAEQQSSNGPVKKSMREKAVERRSVNKEHNSNFKAGYIPIDEDRLHKTGLRGRKGNLAICVIILLFILAVINLIITLVIWAVIRIGPNGCDSMEFHESGLLRFKQVSDMGVIHPLYKSTVGGRRNENLVITGNNQPIVFQQGTTKLSVENNKTSITSDIGMQFFDPRTQNILFSTDYETHEFHLPSGVKSLNVQKASTERITSNATSDLNIKVDGRAIVRGNEGVFIMGKTIEFHMGGNMELKAENSIILNGSVMVSTTRLPSSSSGDQLGSGDWVRYKLCMCADGTLFKVQVTSQNMGCQISDNPCGNTH"}}}
{"variants_of": "B1", "test": "SGCB cell-surface expression functional score (HA stain, bin4 vs bin1, normalised to synonymous) (log10 ratio); higher = more cell-surface SGCB (functional)", "in_short": "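Human beta-sarcoglycan, tagged with HA and fused to YFP, was built into codon-saturation libraries and delivered by lentivirus at MOI <0.1 into HEK293 cells that stably express alpha-, gamma- and delta-sarcoglycan. After 72 hours, YFP-positive cells were sorted and grown for 5–7 days, then stained on ice with Alexa Fluor 647 anti-HA, fixed, sorted into four 5% intensity bins and amplicon-sequenced. Each variant's functional score is the log ratio of its frequency in the highest bin to that in the lowest bin, taken as the median across codons and transductions. Transductions were done in duplicate, and synonymous variants were scaled per section to mean 0, SD 0.5.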"}
{"variant": "MAAAAAAAAEQQSSNGPVKKSMREKAVERRSVNKEHNSNFKAGYIPIDEDRLHKTGLRGRKGNLAICVIILLFILAVINLIITLVIWAVIRIGPNGCDSMEFHESGLLRFKQVSDMGVIHPLYKSTVPGRRNENLVITGNNQPIVFQQGTTKLSVENNKTSITSDIGMQFFDPRTQNILFSTDYETHEFHLPSGVKSLNVQKASTERITSNATSDLNIKVDGRAIVRGNEGVFIMGKTIEFHMGGNMELKAENSIILNGSVMVSTTRLPSSSSGDQLGSGDWVRYKLCMCADGTLFKVQVTSQNMGCQISDNPCGNTH", "note": "[G128P]", "SGCB cell-surface expression functional score (log10)": -1.25}
{"variant": "MAAAAAAAAEQQSSNGPVKCSMREKAVERRSVNKEHNSNFKAGYIPIDEDRLHKTGLRGRKGNLAICVIILLFILAVINLIITLVIWAVIRIGPNGCDSMEFHESGLLRFKQVSDMGVIHPLYKSTVGGRRNENLVITGNNQPIVFQQGTTKLSVENNKTSITSDIGMQFFDPRTQNILFSTDYETHEFHLPSGVKSLNVQKASTERITSNATSDLNIKVDGRAIVRGNEGVFIMGKTIEFHMGGNMELKAENSIILNGSVMVSTTRLPSSSSGDQLGSGDWVRYKLCMCADGTLFKVQVTSQNMGCQISDNPCGNTH", "note": "[K20C]", "SGCB cell-surface expression functional score (log10)": 0.12}
{"variant": "MAAAAAAAAEQQSSNGPVKKSMREKAVERRSVNKEHNSNFKAGYIPIDEDRLHKTGLRGRKGNLAICVIILLFILAVINLIITLVIWAVIRIGPNGCDSMEFHESGLLRFKQVSDMGVIHPLYKSTVGGRRNENLVITGNNQPIVFQQGTTKLSVENNKTSITSDIGMCFFDPRTQNILFSTDYETHEFHLPSGVKSLNVQKASTERITSNATSDLNIKVDGRAIVRGNEGVFIMGKTIEFHMGGNMELKAENSIILNGSVMVSTTRLPSSSSGDQLGSGDWVRYKLCMCADGTLFKVQVTSQNMGCQISDNPCGNTH", "note": "[Q169C]", "SGCB cell-surface expression functional score (log10)": -1.24}
{"variant": "MAAAAAAAAEQQSSNGPVKKSMREKAVERRSVNKEHNSNFKAGYIPIDEDRLHKTGLRGRKGNLAICVIILLFILAVINLIITLVIWAVIRIGPNGCDSMEFHESGLLRFKQVSDMGVIHPLYKSTVGGRRNENLVITGNNQPIVFQQGTTKLSVENNKTSITSDIGMQFFDPRTQNILFSTDYETHEFHLPSGVKSLNVQKASTERITSNATSDLNIKVDGRAIVRGNEGVFIMGKTIEFHMGGNMELKAENSIILNGSVMVSTTRLPSSSSGDQLGSGDWVRYKLCMCADGTLFKVQVTSQRMGCQISDNPCGNTH", "note": "[N304R]", "SGCB cell-surface expression functional score (log10)": -0.41}
{"variant": "MAAAAAAAAEQQSSNGPVKKSMREKAVERRSVNKEHNSNFKAGYIPIDEDRLHKTGLRGRKGNLAICVIILLFILAVINLIITLVIWAVIRIGPNGCDSMEFHESGLLRFKQVSDMGVIHPLYKSTVGGRRNENLVITGNNQPIVFQQGTTKLSVENNKTSITSDIGMQFFDPRTQNILFSTDYETHEFHLPSGVKSLNVQKASTERITSNATSDLNIKVDGRAIVRGNEGVFIMGKTIEFHMGGNMELKAENSIILNGSVMVSTTRLPSSSSGDQLGSGDWVRYKLCMCADGTLFKVNVTSQNMGCQISDNPCGNTH", "note": "[Q299N]", "SGCB cell-surface expression functional score (log10)": 0.04}
{"variant": "MAAAAAAAAEQQSSNGPVKKSMREKAVERRSVNKEHNSNFKAGYIPIDEDRLHKTGLRGRKGNLAICVIILLFILAVINLIITLVIWAVIRIGPNGCDSMEFHESGLLRFKQVSDMGVIHPLYKSTVGGRRNENLVITGQNQPIVFQQGTTKLSVENNKTSITSDIGMQFFDPRTQNILFSTDYETHEFHLPSGVKSLNVQKASTERITSNATSDLNIKVDGRAIVRGNEGVFIMGKTIEFHMGGNMELKAENSIILNGSVMVSTTRLPSSSSGDQLGSGDWVRYKLCMCADGTLFKVQVTSQNMGCQISDNPCGNTH", "note": "[N140Q]", "SGCB cell-surface expression functional score (log10)": -0.33}
{"variant": "MAAAAAAAAEQQSSNGPVKKSMREKAVERRSVNKEHNSNFKAGYIPIDEDRLHKTGLRGRKGNLAICVIILLFILAVINLIITLVIWAVIRIGPNGCDSMEFHESGLLRFKQVSDMGVIHPLYKSTVGGRRNENLVITGNNQPIVFQQGTTKLSVENNKTSITSDIGMQFFDPRTQNILFSTDYETHEFHLPSGVKSLNVQKASTERITSNATSDLNIKVDGRAIVRGNEGVFIMGKTIEFHMGGNMELKAENSIILNGSVMVSTTRLPSSSRGDQLGSGDWVRYKLCMCADGTLFKVQVTSQNMGCQISDNPCGNTH", "note": "[S273R]", "SGCB cell-surface expression functional score (log10)": -0.14}
{"variant": "MAAAAAAAAEQQSSNGPVKKSMREKAVERRSVNKEHNSNFKAGYIPIDEDRLHKTGLRGRKGNLAICVIILLFILAVINLIITLVIWAVIRIGPNGCDSMEFHESGLLRFKQVSDMGVIHPLYKSTVGGRRNENLVITGNNQPIVFQQGTTKLSVENNKTSITSDIGMQFFDPRTQNILFSTDYETHEFHLPSGVKSLNVQKASTERITSNATSDLNIKVDGRAIVRGNEGVFIMGKTIEFHMGGNMELKAENSIILNGSVMVSTTRLPSSSSGDQLGSGDWVRYKLCMGADGTLFKVQVTSQNMGCQISDNPCGNTH", "note": "[C290G]", "SGCB cell-surface expression functional score (log10)": -0.08}
{"variant": "MAAAAAAAAEQQSSNGPVKKSMREKAVERRSVNKEHNSNFKAGYIPIDEDRLHKTGLRGRKGNLAICVIILLFILAVINLIITLVIWAVIRIGPNGCDSMEFHESGLLRFKQVSDMGVIHPLYKSTVGGRRNENLVITGNNQPIVFQQGTTKLSVENNKTSITSDIGMQFFDPRTQNILFSTDYETHEFHLPSGVKSLNVQHASTERITSNATSDLNIKVDGRAIVRGNEGVFIMGKTIEFHMGGNMELKAENSIILNGSVMVSTTRLPSSSSGDQLGSGDWVRYKLCMCADGTLFKVQVTSQNMGCQISDNPCGNTH", "note": "[K202H]", "SGCB cell-surface expression functional score (log10)": -1.29}
{"variant": "MAAAAAAAAEQQSSNGPVKKSMREKAVERRSVNKEHNSNFKAGYIPIDEDRLHKTGLRGRKGNLAICVIILLFILAVINLIITLVIWAVIRIGPNGSDSMEFHESGLLRFKQVSDMGVIHPLYKSTVGGRRNENLVITGNNQPIVFQQGTTKLSVENNKTSITSDIGMQFFDPRTQNILFSTDYETHEFHLPSGVKSLNVQKASTERITSNATSDLNIKVDGRAIVRGNEGVFIMGKTIEFHMGGNMELKAENSIILNGSVMVSTTRLPSSSSGDQLGSGDWVRYKLCMCADGTLFKVQVTSQNMGCQISDNPCGNTH", "note": "[C97S]", "SGCB cell-surface expression functional score (log10)": -0.18}
